Laboratory results from patent publication US20220281976A1.

Experiments:
human CD33 (human) [1] = molecular target: human CD33 (human) (UniProt P20138); assay: cell-based or functional assay
human CD33 (human) [2] = molecular target: human CD33 (human) (UniProt P20138); assay: flow cytometry, human primary macrophages
human CD33 (human) [3] = molecular target: human CD33 (human) (UniProt P20138); assay: flow cytometry, human primary monocytes
human CD33 (human) [4] = molecular target: human CD33 (human) (UniProt P20138); assay: flow cytometry, human primary T cells
human CD33 (human) [5] = molecular target: human CD33 (human) (UniProt P20138); assay: flow cytometry, human primary dendritic cells

Chain of human CD33 (human) (P20138 18-364): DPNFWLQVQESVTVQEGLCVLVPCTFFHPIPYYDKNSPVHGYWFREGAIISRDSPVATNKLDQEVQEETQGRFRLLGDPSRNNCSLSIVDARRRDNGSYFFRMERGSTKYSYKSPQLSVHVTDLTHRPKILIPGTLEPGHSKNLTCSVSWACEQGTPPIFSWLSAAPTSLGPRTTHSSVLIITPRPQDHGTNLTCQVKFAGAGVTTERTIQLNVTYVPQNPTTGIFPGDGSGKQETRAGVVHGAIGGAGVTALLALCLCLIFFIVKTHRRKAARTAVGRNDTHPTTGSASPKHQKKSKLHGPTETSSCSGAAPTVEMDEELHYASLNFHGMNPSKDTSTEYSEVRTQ

Percent CD33 Surface Expression, DC % CD33 (human CD33 (human) [1]): 86%
Percent CD33 Surface Expression, Monocyte % CD33 (human CD33 (human) [1]): 88%
Macrophage MFI (human CD33 (human) [2]): 656
Monocyte MFI (human CD33 (human) [3]): 126
T cell MFI (human CD33 (human) [4]): 29.3
DC MFI (human CD33 (human) [5]): 496
B1: C-51 (antibody, V domains shown)
VH: QLQLQESGPGLVKPSETLSLTCTVSGGSISSSSYYWGWIRQPPGKGLEWIGSIYYSGSTYYNPSLKSRVTISVDTSKNQFSLKLSSVTAADTAVYYCARGAPHDYGGGVGWFDPWGQGTTVTVSS
VL: DIQMTQSPSSVSASVGDRVTITCRASQGISSWLAWYQQKPGKAPKLLIYAASNLQSGVPSRFSGSGSGTDFTLTISSLQPEDFATYYCQQSRVFPWTFGGGTKVEIK
